Laboratory results as given in patent publication US7026282B1, “Peptide antagonists of the human urokinase receptor and method for selecting them” (Cancerforskningsfonden AF 1989 (Fonden Til Fremme AF …, priority 1998, dated 2006).
Non-standard residues stand in square brackets, D forms with d. No end group written: not given here. Cha = N[C@@H](CC1CCCCC1)C(=O)O; βAla = NCCC(=O)O

B1: AE120 (peptide)
peptide 1: D[Cha]F[dS][dR]YLWSG[βAla]K
peptide 2: D[Cha]F[dS][dR]YLWSG
modifications: also: lactam at chain A 12 at chain B 10 to a chain's C-terminus

Columns and labels:
[1] = target: soluble recombinant variant of human uPAR (suPAR) (human) (UniProt Q03405); assay: SPR (Biacore), immobilised human suPAR
soluble recombinant variant of human uPAR (suPAR) (human), sequence (Q03405 23-299, change not shown): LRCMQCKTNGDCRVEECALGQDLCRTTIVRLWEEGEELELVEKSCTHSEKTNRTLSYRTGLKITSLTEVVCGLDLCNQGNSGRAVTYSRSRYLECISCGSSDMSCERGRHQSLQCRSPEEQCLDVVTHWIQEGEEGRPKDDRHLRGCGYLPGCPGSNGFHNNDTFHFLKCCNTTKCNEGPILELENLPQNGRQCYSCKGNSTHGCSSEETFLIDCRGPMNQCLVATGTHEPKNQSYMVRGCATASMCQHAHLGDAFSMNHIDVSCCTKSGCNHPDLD

[2] = target: soluble recombinant variant of human uPAR (suPAR) (human) (UniProt Q03405); assay: SPR (Biacore), ligand over immobilised neuramimidase-treated human suPAR

Row | Binder | fold slower off-rate than AE78 [1] [fold] | Relative kdiss (relative to GFD) [2] | fold slower off-rate than the monomer AE105 [1] [times] | koff [2] [s⁻¹]
1 | DXFSRYLWS (beta-cyclohexyl-L-alanine (Cha) at 2; D-Ser at 4; D-Arg at 5) [AE105] | 48 | 1.5 |  | 
2 | B1 |  | 0.21 | 5 to 7 | 
3 | DFF[dS][dR]YLWS [AE112] |  | 12.9 |  | 0.00181
4 | DNF[dS][dR]YLWS [AE113] |  | > 100 |  | 
